Experimental data reported in PMC4072508, “Genome-Wide Prediction and Validation of Peptides That Bind Human Prosurvival Bcl-2 Proteins” (PLoS Computational Biology, 2014).
Values joined by “and” are separate entries in the source; they are usually repeats but may differ in a detail not shown here. Identical values can stand only once. Like-named read-outs stand apart in the source and are kept apart here. Residues, ends and D or L forms follow the SMILES beside them. *: point of attachment. 5FAM = O=C1OC2(c3ccc(O)cc3Oc3cc(O)ccc32)c2ccc(C(=O)*)cc21

How the values were obtained:
[1] = molecular target: T1, Bcl-xL (Homo sapiens, UniProt Q07817); assay: LUMIER full-length protein interaction; type: binding; settings: LUMIER results for Bcl-xL, Z-score relative to Gaussian fit of the data; for z-score 1.1: experiment 1, duplicate 1; for z-score 1.2: experiment 1, duplicate 2; for z-score 2.1: experiment 2, duplicate 1; for z-score 2.2: experiment 2, duplicate 2
T1 construct: myc-Bcl-xL SPOT array & FP; made in house
Description: (§1) The LUMIER assay was carried out as previously described with the following modifications. A stable cell line expressing receptor tagged on the N-terminus with Nanoluc luciferase was created (the prey). […] Each bait construct was transfected into the receptor-luciferase cells in a 96-well format and after 48 hours the cells were lysed and transferred to 384-well plates coated with anti-FLAG. After incubation and washing, luminescence was measured to quantify how much receptor-luciferase was captured by the bait protein. Anti-Flag ELISA signal was used to exclude bait proteins that were not expressed. The experiment was carried out two times, each in duplicate.

[2] = molecular target: T2, Mcl-1 (Homo sapiens, UniProt Q07820); assay: LUMIER full-length protein interaction; type: binding; settings: LUMIER results for Mcl-1, Z-score relative to Gaussian fit of the data; for z-score 1.2: experiment 1, duplicate 2; for z-score 2.1: experiment 2, duplicate 1; for z-score 2.2: experiment 2, duplicate 2
T2 construct: myc-Mcl-1 SPOT array & FP; made in house
Description: as §1

[3] = molecular target: T2, Mcl-1; settings: cited from earlier work
From the text: Negative control mutatio ...

[4] = read-out: Binder class, Mcl-1, S1 Bim variants, specific binding measured using yeast display, ref Dutta et al. (2010)
[5] = read-out: Binder class, Mcl-1, natural BH3 peptides, interactions taken from literature

T2 sequence (Q07820 with tags, fused parts or gaps): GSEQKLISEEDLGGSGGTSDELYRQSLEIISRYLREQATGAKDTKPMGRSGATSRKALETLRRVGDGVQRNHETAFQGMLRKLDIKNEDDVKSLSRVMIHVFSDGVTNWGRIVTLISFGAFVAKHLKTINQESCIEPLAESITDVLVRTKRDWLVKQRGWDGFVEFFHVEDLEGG
T1 sequence (Q07817 with tags, fused parts or gaps): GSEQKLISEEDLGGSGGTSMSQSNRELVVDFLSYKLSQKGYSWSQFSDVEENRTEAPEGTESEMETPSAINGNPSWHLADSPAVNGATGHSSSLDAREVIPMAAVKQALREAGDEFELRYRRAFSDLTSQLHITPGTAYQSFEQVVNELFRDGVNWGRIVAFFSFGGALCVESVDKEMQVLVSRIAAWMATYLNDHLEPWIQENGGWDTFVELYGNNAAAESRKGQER

| Compound | z-score 1.1 [1] | z-score 1.2 [1] | z-score 2.1 [1] | z-score 2.2 [1] | z-score 1.2 [2] | z-score 2.1 [2] | z-score 2.2 [2] | Kd [3, 4] [nM] | Kd [3, 5] [nM] | Kd ([3]; read-out: KD, Mcl-1, previously reported) [nM] |
| --- | --- | --- | --- | --- | --- | --- | --- | --- | --- | --- |
| FBXL3 (CHGLRELALNYHLLSDELLLALSSEK) | -0.4003 | -1.2734 | 2.098 | 0.0146 | -0.6557 | -0.4574 | -0.175 |  |  |  |
| PEIWFAQEVGRIGDEVNAYYARR |  |  |  |  |  |  |  | < 1000 |  |  |
| AAQLTAARLKALGDELHQRTMWR [Hrk] |  |  |  |  |  |  |  |  | > 10000 |  |
| PRDX4 (LDFTFVCPTEIIAFGDRLEEFRSINT) | -0.3595 | -2.173 | -0.3545 | -0.635 | -0.5708 | -0.006199 | -0.3116 |  |  |  |
| DSN1 (RAKASSLSEELKHFADGLETDGTLQK) | -1.115 | 0.4795 | -0.01103 | -0.4978 | -0.5012 | 0.1019 | 0.2829 |  |  |  |
| DZIP3 (NGGLLEFHKSLQEIGDKNDHWFDIDP) | 0.7197 | 0.5899 | 1.027 | -0.02772 | 0.5092 | 0.307 | 0.2898 |  |  |  |
| PEIWVAQEIDRVGDEINAYYARR |  |  |  |  |  |  |  | < 1000 |  |  |
| WAREIGAQLRRMADDLNAQYERR (EQWAREIGAQLRRMADDLNAQYERRR) [Puma] |  |  |  |  |  |  |  |  | < 1000 |  |
| PEIWIAQEIDRIGDEVNAYYARR |  |  |  |  |  |  |  | < 1000 |  |  |
| AAQRYGRELRRMSDEFVDSFKKG (LWAAQRYGRELRRMSDEFVDSFKKGL) [Bad] |  |  |  |  |  |  |  |  | < 1000 | > 2500 |
| PEIWFAQELKRNGDEYNAYYARR |  |  |  |  |  |  |  | > 10000 |  |  |
| GBP6 (NDDTPWIARTLDNLADELTAILSAPA) | 0.2217 | -0.6971 | -0.4961 | -0.5692 | 0.7158 | -0.81 | -1.083 |  |  |  |
| PEIWVAQEFRRAGDEFNAYYARR |  |  |  |  |  |  |  | > 10000 |  |  |
| TMEM214 (SFLSAHCASHLAWFGDSLTSLSQRLQ) | 0.1125 | -0.2947 | -0.2028 | 0.228 | -0.396 |  | -0.9391 |  |  |  |
| TMEM184C (SDIRDDISEQVRHVGRTVRGHPRKKL) | -0.516 | -0.4557 | 0.7398 | 0.3954 | 0.404 | 2.487 | 1.818 |  |  |  |
| STK11IP (DSLLWKLAGLLRESGDVVLSGCSTLS) | -2.105 | -2.491 | -0.2948 | 0.7075 | 0.4828 | -0.9757 | -1.0129 |  |  |  |

| Compound | z-score 1.1 [1] | z-score 1.2 [1] | z-score 2.1 [1] | z-score 2.2 [1] | z-score 1.2 [2] | z-score 2.1 [2] | z-score 2.2 [2] | Kd [3, 4] [nM] | Kd [3, 5] [nM] | Kd ([3]; read-out: KD, Mcl-1, previously reported) [nM] |
| --- | --- | --- | --- | --- | --- | --- | --- | --- | --- | --- |
| PEIWVAQEFKRYGDETNAYYARR |  |  |  |  |  |  |  | > 10000 |  |  |
| PEIWFAQELSRYGEEYNAYYARR |  |  |  |  |  |  |  | > 10000 |  |  |
| PEIWVAQEFGRNGDEFNAYYARR |  |  |  |  |  |  |  | > 10000 |  |  |
| CASP8 (PFKKMDFSRNLYDIGEQLDSEDLASL) | 0.03556 | -1.065 | 0.3161 | -0.06353 | -0.8504 | -0.06643 | -0.03009 |  |  |  |
| PEIWIAQEINRVGDEINAYYARR |  |  |  |  |  |  |  | < 1000 |  |  |
| CC[C@H](C)[C@H](NC(=O)[C@@H]1CCCN1C(=O)[C@H](CCCNC(=N)N)NC(=O)[C@H](CCCNC(=N)N)NC(=O)[C@@H]1CCCN1C(=O)[C@H](CC(N)=O)NC(=O)[C@H](C)NC(=O)[C@H](CC(C)C)NC(=O)[C@H](CCSC)NC(=O)[C@H](CC(=O)O)NC(=O)[C@H](CO)NC(=O)[C@H](Cc1c[nH]c2ccccc12)NC(=O)[C@H](Cc1c[nH]cn1)NC(=O)[C@H](CCCNC(=N)N)NC(=O)[C@H](CC(C)C)NC(=O)[C@H](CCC(=O)O)NC(=O)[C@H](C)NC(=O)CNC(=O)[C@@H](NC(=O)[C@H](CO)NC(=O)[C@H](CC(N)=O)NC(=O)[C@H](Cc1ccc(O)cc1)NC(=O)CNC(=O)[C@@H](NC(=O)[C@H](Cc1ccccc1)NC(=O)c1ccc2c(c1)C(=O)OC21c2ccc(O)cc2Oc2cc(O)ccc21)C(C)C)[C@@H](C)O)C(=O)N[C@@H](C)C(N)=O [SYT1] (5FAM-FVGYNSTGAELRHWSDMLANPRRPIA-NH2) | -0.3372 | -0.9542 | 2.574 | 0.6781 | -0.6598 | 0.132 | -0.2801 |  |  |  |
| PEIWFAQEIDRIGDEVNAYYARR |  |  |  |  |  |  |  | < 1000 |  |  |
| DPF3 (SCMATVIHNPLKALGDQFYKEAIEHC) | 4.341 | 0.09731 | 0.3964 | 0.9401 | 0.1193 | -0.01021 | -0.07055 |  |  |  |
| C7orf26 (FDHMVPLVEEINRLADELNPLNASQE) | 0.6785 | 0.5183 | 0.5393 | 0.7734 | 0.6167 | 1.59 | 1.598 |  |  |  |
| ZNF295 (ERLKGQLCDVLLIVGDQKFRAHKNVL) | 0.6872 | -1.979 | 2.441 | -0.4135 | 0.3792 | -0.9697 | 0.1208 |  |  |  |
| BBS10 (RMIVDCVSSHLKKTGDGAKTFIIFLC) | 1.141 and 1.702 |  |  |  |  | 0.6411 and 1.2239 |  |  |  |  |
| RNF160 (WLKGDILGEKLVNLADCLCNEDLESR) | -0.1237 | 0.7519 | 2.286 | 3.519 | 0.2603 |  | -0.3716 |  |  |  |
| FOXI1 (PDKRLTLSQIYQYVADNFPFYNKSKA) | 4.354 | -0.599 | 1.203 | 1.501 | 0.03188 |  | -0.4966 |  |  |  |
| COL2A1 (VLLTLLVAAVLRCQGQDVQEAGSCVQ) | 1.515 | -1.523 | 1.61 | 2.141 |  | 1.806 | 2.677 |  |  |  |
| ACN9 (LQLHRVLPPDLKSLGDQYVKDEFRRH) | 2.487 | -0.8795 | 0.2924 | 1.441 | 0.7914 | 1.721 | 2.179 |  |  |  |
